Source: publication PMC10783653 (Cell reports. Physical science, 2023)
Values belong to the molecule of their own block, whether it stands above or below them.

Key:
RET M918T = RET M918T (Homo sapiens, UniProt P07949, M918T); test: LIMS-Kinase assay, RET M918T
EGFR L858R = EGFR L858R (Homo sapiens, UniProt P00533, L858R); type: biochemical; settings: enzyme optimization; 2.5 nM EGFR L858R, 1 μM peptide, 100 μM ATP, 60 min

Chain of RET M918T (P07949 29-1114 M918T): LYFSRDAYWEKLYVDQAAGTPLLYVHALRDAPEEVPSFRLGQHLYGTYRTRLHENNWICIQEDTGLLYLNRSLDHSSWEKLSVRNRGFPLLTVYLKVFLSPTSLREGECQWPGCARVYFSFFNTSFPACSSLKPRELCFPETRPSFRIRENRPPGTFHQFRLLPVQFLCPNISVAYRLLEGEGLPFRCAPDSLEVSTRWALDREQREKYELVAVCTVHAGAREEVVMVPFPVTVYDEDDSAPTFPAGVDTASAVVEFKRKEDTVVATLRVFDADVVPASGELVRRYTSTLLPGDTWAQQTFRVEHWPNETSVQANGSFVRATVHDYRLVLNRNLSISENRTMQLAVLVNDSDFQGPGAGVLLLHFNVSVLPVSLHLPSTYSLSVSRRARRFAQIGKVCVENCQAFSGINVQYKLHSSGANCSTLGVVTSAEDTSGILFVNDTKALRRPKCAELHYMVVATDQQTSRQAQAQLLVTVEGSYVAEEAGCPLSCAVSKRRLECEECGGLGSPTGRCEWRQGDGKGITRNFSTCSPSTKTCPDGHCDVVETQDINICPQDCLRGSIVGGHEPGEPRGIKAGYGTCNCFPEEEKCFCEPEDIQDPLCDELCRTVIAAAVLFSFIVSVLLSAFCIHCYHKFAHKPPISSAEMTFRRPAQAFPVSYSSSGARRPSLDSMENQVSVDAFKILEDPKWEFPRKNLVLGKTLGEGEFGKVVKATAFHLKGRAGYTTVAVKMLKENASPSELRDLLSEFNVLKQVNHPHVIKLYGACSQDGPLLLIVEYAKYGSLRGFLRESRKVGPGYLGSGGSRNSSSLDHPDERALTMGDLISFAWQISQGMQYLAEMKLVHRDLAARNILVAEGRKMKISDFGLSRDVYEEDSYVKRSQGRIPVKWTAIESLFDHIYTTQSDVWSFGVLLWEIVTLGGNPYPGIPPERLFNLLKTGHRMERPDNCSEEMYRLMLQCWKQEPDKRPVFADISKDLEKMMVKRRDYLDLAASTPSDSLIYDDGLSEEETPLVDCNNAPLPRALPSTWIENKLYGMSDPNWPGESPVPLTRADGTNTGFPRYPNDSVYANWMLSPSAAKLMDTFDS

substrate converted (RET M918T; enzyme optimization, 2.5 nM RET M918T, 1 μM peptide, 100 μM ATP, 60 min): Approximately 39%
Molecule: MS-Csktide2: kinase substrate peptide, sequence KEEIYFFFG

potency in LIMS-Kinase assay compared to previously reported value (RET M918T; 0.7 nM vs. […]): more than six times higher
Molecule: COc1ccc(CN2C3CC2CN(c2ccc(-c4cc(OCC(C)(C)O)cn5ncc(C#N)c45)cn2)C3)cn1 [selpercatinib, reference compound]

substrate converted (EGFR L858R): approximately 20%
Molecule: MS-Csktide1: kinase substrate peptide, sequence KEEIYFFF
